Laboratory results published in patent publication US20140329228A1 (Ushio Denki Kabushiki Kaisha, priority 2011, published 2014).

What was measured:
Type in all cases: binding
[1] = Fluorescence enhancement of fluoro-labeled Fab complex / scFv with morphine; details: antigen Morphine 100 μg/mL versus absence of antigen
[2] = Fluorescence enhancement of fluoro-labeled Fab complex / scFv with methamphetamine; details: antigen Methamphetamine 100 μg/mL versus absence of antigen
[3] = Fluorescence enhancement of fluoro-labeled Fab complex with amphetamine; details: antigen Amphetamine 100 μg/mL versus absence of antigen
[4] = Fluorescence enhancement of fluoro-labeled Fab complex with MDMA; details: antigen MDMA 100 μg/mL versus absence of antigen
[5] = Fluorescence enhancement of fluoro-labeled Fab complex with MDA; details: antigen MDA 100 μg/mL versus absence of antigen
[6] = Fluorescence enhancement of fluoro-labeled Fab complex / scFv with cocaine; details: antigen Cocaine 100 μg/mL versus absence of antigen
[7] = Fluorescence enhancement of fluoro-labeled Fab complex / scFv with ketamine; details: antigen Ketamine 100 μg/mL versus absence of antigen

B1: Anti-Methamphetamine: same-color double-label Fab complex of anti-methamphetamine antibody; TAMRA-labeled VL (SEQ ID NO: 25) and VH (SEQ ID NO: 26) (antibody, V domains shown)
VH: QVQLQQSGPELVKPGASVKVSCKASGYPSTRFYIYWVKQSHGKSLEWIGNIDPYNGGTTYNQKFKGKATLTIDKSSTTAYVHLNSLTSEDSAVYYCAGFHYSGQLDTDVWGAGTKVTVSS
VL: DIVMTQSPAFMSASPGEKVTLTCSASSSVSSTFLYWYQQKPGSSPKLWIYSTSNLASGVPSRFSGSGSGTSYSLTINSMEAEDAASYFCHQWSNYPFTFGSGTKLEIKR
modifications: Fab; TAMRA labels; Meth-VH-26; Meth-VL-25
With B1 as the molecule, how does the “Fluorescence enhancement in the presence of 100 μg/mL antigen” value (“Fluorescence enhancement in the presence” below) [1] read?
Its value is 0.9.

And the “Fluorescence enhancement in the presence” value [2]?
Its value is 7.2.

And the “Fluorescence enhancement in the presence” value [3]?
The value was 6.8.

And the “Fluorescence enhancement in the presence” value [4]?
The value was 7.2.

And the “Fluorescence enhancement in the presence” value [5]?
Its value is 5.6.

And the “Fluorescence enhancement in the presence” value [6]?
Its value is 1.0.

And the “Fluorescence enhancement in the presence” value [7]?
The value was 1.0.
